Measured values from PMC8715002, “Biochemical and Structural Characterization of a Novel Bacterial Tannase From Lachnospiraceae bacterium in Ruminant Gastrointestinal Tract” (Frontiers in Bioengineering and Biotechnology, 2021).

Legend:
Assay in all cases: purified protein
Assay type in all cases: biochemical, Lachnospiraceae bacterium
Conditions in all cases: pH 7.0, 50 °C, 0.2–5 mM substrate
COC(=O)c1cc(O)c(O)c(O)c1 = test system: T1, COC(=O)c1cc(O)c(O)c(O)c1
T1 construct: about 68 kDa, monomer; catalytic Ser205/Asp582/His614; forward primer reads MSQSTATR; signal peptide not discussed

[1] = test system: T2, CCCCCCCCCCCCOC(=O)c1cc(O)c(O)c(O)c1
T2 construct: about 68 kDa, monomer; catalytic Ser205/Asp582/His614; forward primer reads MSQSTATR; signal peptide not discussed

[2] = test system: T3, CCCOC(=O)c1cc(O)c(O)c(O)c1
T3 construct: about 68 kDa, monomer; catalytic Ser205/Asp582/His614; forward primer reads MSQSTATR; signal peptide not discussed

[3] = test system: T4, CCOC(=O)c1cc(O)c(O)c(O)c1
T4 construct: about 68 kDa, monomer; catalytic Ser205/Asp582/His614; forward primer reads MSQSTATR; signal peptide not discussed

## TanALb (tannase from Lachnospiraceae bacterium) (Lachnospiraceae bacterium)
COC(=O)c1cc(O)c(O)c(O)c1
  Km: 2800 ± 350 µM
  kcat: 82.5 ± 6.3 s⁻¹
  kcat/Km: 36400 ± 4400 M⁻¹ s⁻¹
[1]
  Km: 1800 ± 260 µM
  kcat: 24.6 ± 5.2 s⁻¹
  kcat/Km: 15300 ± 2100 M⁻¹ s⁻¹
[2]
  Km: 2000 ± 220 µM
  kcat: 44.2 ± 3.6 s⁻¹
  kcat/Km: 24500 ± 4000 M⁻¹ s⁻¹
[3]
  Km: 2600 ± 190 µM
  kcat: 78.8 ± 10.4 s⁻¹
  kcat/Km: 33300 ± 7300 M⁻¹ s⁻¹
